The source of these data is CN113754772A (SUNSHINE GUOJIAN PHARMACEUTICAL SHANGHAI CO LTD, dated 2021).

B1: anti-PDL1×KDR BsAb3 (bispecific antibody, human IgG1, lambda)
heavy: not shown
light: VLTQPPSVSGAPGQRVTISCTGSHSNFGAGTDVHWYQHLPGTAPKLLIHGDSNRPSGVPDRFSGSKSGTSASLAITGLQAEDEADYYCQSYDYGLRGWVFGGGTKLTVLGQPKAAPSVTLFPPSSEELQANKATLVCLISDFYPGAVTVAWKADSSPVKAGVETTTPSKQSNNKYAASSYLSLTPEQWKSHRSYSCQVTHEGSTVEKTVAPTECS
notes: also called 抗PDL1×KDR双抗
B2: anti-PDL1×KDR BsAb1 (bispecific antibody)
heavy (part 1 of 2): QVQLQQSGGGLVKPSQSLSLTCTVSGFSLTSYGVHWVRQPPGKGLEWIGLIWSGGGTDYNPSLKSRLTISRDTSKNQVSFKISSLTAADTAVYYCARQLGLRAMDYWGQGTSVTVSS
heavy (part 2 of 2): GGGGSGGGGSGGGGSVLTQPPSVSGAPGQRVTISCTGSHSNFGAGTDVHWYQHLPGTAPKLLIHGDSNRPSGVPDRFSGSKSGTSASLAITGLQAEDEADYYCQSYDYGLRGWVFGGGTKLTVLGGGGSGGGGSGGGGSGGGGSEVQLVESGGGLVKPGGSLRLSCAASGFTFSSYSMNWVRQAPGKGLEWVSSISSSSSYIYYADSVKGRFTISRDNAKNSLYLQMNSLRAEDTAVYYCARVTDAFDIWGQGTLVTVSS
light: EIVLTQSPDFLSVTPKEKVTITCRASQSIGTTIHWYQQKPDQSPKLLIKYASQSFSGVPSRFSGSGSGTDFTLTINSVEAEDAATYYCQQSNSWPLTFGAGTKLEIKRTVAAPSVFIFPPSDEQLKSGTASVVCLLNNFYPREAKVQWKVDNALQSGNSQESVTEQDSKDSTYSLSSTLTLSKADYEKHKVYACEVTHQGLSSPVTKSFNRGEC
notes: also called 抗PDL1×KDR双抗; not shown: CH1-CH2-CH3 heavy chain constant region
B3: anti-PDL1×KDR BsAb2 (bispecific antibody)
heavy (part 1 of 2): B2 heavy (part 1 of 2)
heavy (part 2 of 2): GGGGSGGGGSGGGGSEVQLVESGGGLVKPGGSLRLSCAASGFTFSSYSMNWVRQAPGKGLEWVSSISSSSSYIYYADSVKGRFTISRDNAKNSLYLQMNSLRAEDTAVYYCARVTDAFDIWGQGTLVTVSSGGGGSGGGGSGGGGSGGGGSVLTQPPSVSGAPGQRVTISCTGSHSNFGAGTDVHWYQHLPGTAPKLLIHGDSNRPSGVPDRFSGSKSGTSASLAITGLQAEDEADYYCQSYDYGLRGWVFGGGTKLTVL
light: B2 light
notes: as for B2
B4: 抗KDR单抗 (anti-human KDR monoclonal antibody) (antibody, V domains shown)
VH: EVQLVESGGGLVKPGGSLRLSCAASGFTFSSYSMNWVRQAPGKGLEWVSSISSSSSYIYYADSVKGRFTISRDNAKNSLYLQMNSLRAEDTAVYYCARVTDAFDIWGQGTLVTVSS
VL: VLTQPPSVSGAPGQRVTISCTGSHSNFGAGTDVHWYQHLPGTAPKLLIHGDSNRPSGVPDRFSGSKSGTSASLAITGLQAEDEADYYCQSYDYGLRGWVFGGGTKLTVL
notes: Whole monoclonal antibody; CDRs from clone 3A10 of Dan Lu et al. 2003, frameworks mutated in house; also called 抗人KDR单抗; anti-KDR mAb
B5: 抗PD-L1单抗 (anti-human PD-L1 monoclonal antibody M8) (antibody, V domains shown)
VH: B2 heavy (part 1 of 2)
VL: EIVLTQSPDFLSVTPKEKVTITCRASQSIGTTIHWYQQKPDQSPKLLIKYASQSFSGVPSRFSGSGSGTDFTLTINSVEAEDAATYYCQQSNSWPLTFGAGTKLEIK
notes: also called 抗人PD-L1单抗M8; anti-PDL1 mAb

By EC50 is commonly meant the midpoint of the concentration-response curve.

T1 sequence (P35968 other isoform, or with tags, fused parts or gaps): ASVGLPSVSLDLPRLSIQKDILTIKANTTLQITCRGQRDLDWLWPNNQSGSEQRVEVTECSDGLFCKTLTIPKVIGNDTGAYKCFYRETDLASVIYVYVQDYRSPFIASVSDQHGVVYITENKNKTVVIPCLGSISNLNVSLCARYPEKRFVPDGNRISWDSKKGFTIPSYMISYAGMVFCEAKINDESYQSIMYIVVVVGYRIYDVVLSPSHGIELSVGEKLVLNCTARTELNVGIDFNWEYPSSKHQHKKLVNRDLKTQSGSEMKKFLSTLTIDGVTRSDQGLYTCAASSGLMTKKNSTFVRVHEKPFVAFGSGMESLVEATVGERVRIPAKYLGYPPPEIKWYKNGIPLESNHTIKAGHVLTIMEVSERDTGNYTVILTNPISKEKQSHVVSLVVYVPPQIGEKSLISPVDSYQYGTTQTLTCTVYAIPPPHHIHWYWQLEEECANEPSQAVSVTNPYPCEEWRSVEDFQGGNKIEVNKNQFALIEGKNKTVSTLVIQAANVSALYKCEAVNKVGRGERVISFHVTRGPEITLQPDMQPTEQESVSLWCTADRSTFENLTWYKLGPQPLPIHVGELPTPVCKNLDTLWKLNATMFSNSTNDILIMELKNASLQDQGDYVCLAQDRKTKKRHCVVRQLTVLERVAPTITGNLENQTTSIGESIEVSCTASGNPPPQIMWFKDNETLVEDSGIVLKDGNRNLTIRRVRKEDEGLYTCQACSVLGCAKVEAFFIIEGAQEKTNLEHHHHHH
T3 sequence (Q9NZQ7 19-290 limits assumed): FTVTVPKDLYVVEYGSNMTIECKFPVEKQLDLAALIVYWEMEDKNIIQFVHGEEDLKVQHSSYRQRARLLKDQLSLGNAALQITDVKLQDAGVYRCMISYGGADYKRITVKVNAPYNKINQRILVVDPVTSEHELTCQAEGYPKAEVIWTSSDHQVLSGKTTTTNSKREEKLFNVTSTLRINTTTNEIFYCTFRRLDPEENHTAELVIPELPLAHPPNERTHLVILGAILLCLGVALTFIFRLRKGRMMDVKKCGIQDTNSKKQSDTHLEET
T4 sequence (Q9NZQ7 other isoform, or with tags, fused parts or gaps): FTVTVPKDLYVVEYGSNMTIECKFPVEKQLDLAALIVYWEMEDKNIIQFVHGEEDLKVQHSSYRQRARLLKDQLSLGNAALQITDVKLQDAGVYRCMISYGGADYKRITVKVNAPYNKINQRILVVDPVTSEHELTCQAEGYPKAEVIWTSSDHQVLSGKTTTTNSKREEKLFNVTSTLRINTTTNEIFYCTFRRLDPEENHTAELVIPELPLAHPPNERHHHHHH

For one assay, the target named is KDR on KDR/NFAT-RE HEK293 cells (UniProt P35968 20-1356). Briefly: cell-based or functional assay.
Chain of KDR on KDR/NFAT-RE HEK293 cells (P35968 20-1356): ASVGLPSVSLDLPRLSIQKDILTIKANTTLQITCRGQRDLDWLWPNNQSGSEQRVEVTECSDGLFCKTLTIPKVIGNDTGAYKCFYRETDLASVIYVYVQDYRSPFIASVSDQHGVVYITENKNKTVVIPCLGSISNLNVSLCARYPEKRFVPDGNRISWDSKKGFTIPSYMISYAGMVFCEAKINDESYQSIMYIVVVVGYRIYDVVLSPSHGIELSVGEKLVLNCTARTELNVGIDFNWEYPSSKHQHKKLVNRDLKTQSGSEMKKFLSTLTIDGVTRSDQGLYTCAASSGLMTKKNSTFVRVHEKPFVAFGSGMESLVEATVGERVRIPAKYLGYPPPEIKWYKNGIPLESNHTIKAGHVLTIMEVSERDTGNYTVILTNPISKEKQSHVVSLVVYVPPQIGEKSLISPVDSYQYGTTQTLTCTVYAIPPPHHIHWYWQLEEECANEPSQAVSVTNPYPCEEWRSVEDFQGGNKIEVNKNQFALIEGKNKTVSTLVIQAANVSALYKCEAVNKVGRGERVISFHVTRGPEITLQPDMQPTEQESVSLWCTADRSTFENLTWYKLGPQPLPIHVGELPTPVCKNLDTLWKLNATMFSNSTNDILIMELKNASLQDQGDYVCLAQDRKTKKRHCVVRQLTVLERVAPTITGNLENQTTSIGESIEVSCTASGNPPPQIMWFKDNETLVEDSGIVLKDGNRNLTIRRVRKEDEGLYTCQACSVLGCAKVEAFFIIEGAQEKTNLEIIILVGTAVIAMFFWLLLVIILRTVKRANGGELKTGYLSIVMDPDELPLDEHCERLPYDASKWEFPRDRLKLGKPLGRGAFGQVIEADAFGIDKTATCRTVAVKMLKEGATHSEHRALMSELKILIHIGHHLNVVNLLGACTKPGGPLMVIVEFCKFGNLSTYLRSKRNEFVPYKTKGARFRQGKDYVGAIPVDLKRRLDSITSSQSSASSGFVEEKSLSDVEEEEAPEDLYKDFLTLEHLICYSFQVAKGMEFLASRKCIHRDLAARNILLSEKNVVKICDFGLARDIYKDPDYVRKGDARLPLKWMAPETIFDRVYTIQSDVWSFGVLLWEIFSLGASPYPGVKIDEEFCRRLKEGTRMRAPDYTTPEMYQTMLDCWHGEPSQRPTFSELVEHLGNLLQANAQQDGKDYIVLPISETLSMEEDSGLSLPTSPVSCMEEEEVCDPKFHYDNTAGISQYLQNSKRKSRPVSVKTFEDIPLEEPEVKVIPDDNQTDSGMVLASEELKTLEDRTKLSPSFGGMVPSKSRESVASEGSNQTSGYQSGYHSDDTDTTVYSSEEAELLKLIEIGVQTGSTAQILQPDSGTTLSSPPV
Consider B1, for which the “IC50 (luminescence, VEGF Bioassay)” value was 4.35 nM.

For B2, the “IC50 (luminescence, VEGF Bioassay)” value was 13.5 nM.

As for B3, the “IC50 (luminescence, VEGF Bioassay)” value came out at 6.09 nM.

On to B4, for which the “IC50 (luminescence, VEGF Bioassay)” value was 3.1 nM.

Another assay deals with PD-L1 on PD-L1 aAPC/CHO-K1 cells (UniProt Q9NZQ7 19-290, limits assumed). Briefly: cell-based or functional assay.
Chain of PD-L1 on PD-L1 aAPC/CHO-K1 cells (Q9NZQ7 19-290 limits assumed): as the sequence (Q9NZQ7 19-290 limits assumed) above
Turning to B1, the “IC50 (luminescence, PD-1/PD-L1 Blockade Bioassay)” value amounted to 0.3 nM.

With B5, the “IC50 (luminescence, PD-1/PD-L1 Blockade Bioassay)” value came out at 0.23 nM.

Take B2: the “IC50 (luminescence, PD-1/PD-L1 Blockade Bioassay)” value was 0.27 nM.

Consider B3, for which the “IC50 (luminescence, PD-1/PD-L1 Blockade Bioassay)” value was 0.22 nM.

The next assay addresses T1, KDR-ECD-His蛋白 (human, UniProt P35968 20-764).
T1 construct: extracellular domain; Made in HEK-293E cells with an added N-terminal signal peptide (not part of the mature protein); also called KDR抗原
Nature of the assay: bridging ELISA: PDL1-ECD-hFc coated, antibody, then KDR-ECD-His, detected with HRP-anti-His. In general terms: In an ELISA, binding on a coated surface is turned into a signal by an enzyme label.
On to B5, for which the binding result is listed as “no binding (tested: 12nM)”.

The target in the next assay is T2, PDL1-ECD-hFc蛋白 (human, UniProt Q9NZQ7 19-238).
T2 construct: extracellular domain; PDL1-ECD-His with its C-terminal tag exchanged for hFc; not shown: hFc tag in place of the His tag
T2 sequence (Q9NZQ7 19-238): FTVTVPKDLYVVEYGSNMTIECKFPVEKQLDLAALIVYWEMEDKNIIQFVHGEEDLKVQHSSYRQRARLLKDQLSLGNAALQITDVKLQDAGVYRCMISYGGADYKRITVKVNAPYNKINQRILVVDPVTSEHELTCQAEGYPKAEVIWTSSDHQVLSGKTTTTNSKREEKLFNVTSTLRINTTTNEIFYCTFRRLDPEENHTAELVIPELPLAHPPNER
The description is as above.
In the case of B4, the binding result is given as “no binding (tested: 12nM)”.

A further assay has as its target T3, PD-L1 on N87-PDL1 cells (UniProt Q9NZQ7 19-290, limits assumed).
T3 construct: whole, on cells; also called N87-PDL1细胞
Nature of the assay: flow cytometry on N87-PDL1 cells, FITC goat anti-human Fc. (In general: A flow cytometer gives signals particle by particle.)
Molecule B1 displayed a 50% effective concentration (EC50) of 0.21 nM.

B5: the midpoint of the response, the EC50, lay at 0.13 nM.

B2 yielded an EC50 of 0.15 nM.

In turn, B3 gave an EC50 of 0.15 nM.

The next assay concerns the target T4, PDL1-ECD-His蛋白 (human, UniProt Q9NZQ7 19-238).
T4 construct: extracellular domain; Made in HEK-293E cells with an added N-terminal signal peptide (not part of the mature protein); also called PD-L1抗原
Nature of the assay: ELISA, PDL1-ECD-His coated, HRP goat anti-human Fc.
B1: the EC50 stood at 0.15 nM.

B5: the midpoint of the response, the EC50, lay at 0.13 nM.

In the case of B2, the EC50 was determined as 0.13 nM.

B3 displayed an EC50 of 0.14 nM.

The target in a further assay is T1, KDR-ECD-His蛋白. Briefly: ELISA, KDR-ECD-His coated, HRP-anti-Fab.
For the molecule B1, the EC50 amounted to 0.41 nM.

The molecule B2 showed an EC50 of 0.23 nM.

B3 gave a half-maximal effective concentration (EC50) of 0.23 nM.

Turning to B4, the EC50 stood at 0.26 nM.

In another assay the target is T2, PDL1-ECD-hFc蛋白. Briefly: bridging ELISA: PDL1-ECD-hFc coated, antibody titrated, then 1 μg/ml KDR-ECD-His, HRP-anti-His (binding of both antigens at once).
In turn, B1 displayed an EC50 of 0.2 nM.

With B2, the concentration for a half-maximal effect (EC50) turned out to be 0.13 nM.

In turn, B3 had an EC50 of 0.14 nM.
